Values joined by “and” are separate entries in the source; they are usually repeats but may differ in a detail not shown here. Equal values may be shown once.
T1: 인간 골수종 세포주 U266 표면의 인간 BCMA (human, UniProt Q02223 1-184)
T1 construct: whole, on cells; also called U266 세포; FACS 세포 결합
T1 sequence (looked up): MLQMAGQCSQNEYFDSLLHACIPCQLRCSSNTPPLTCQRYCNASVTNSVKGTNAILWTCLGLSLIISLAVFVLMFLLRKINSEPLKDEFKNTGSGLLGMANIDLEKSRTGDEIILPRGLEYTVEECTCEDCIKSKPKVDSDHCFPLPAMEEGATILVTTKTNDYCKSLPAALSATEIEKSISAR

T2: 재조합 인간 BCMA-his 단백질 (Cat#BCA-H522Y, 아크로 바이오시스템즈) (human, UniProt Q02223 1-54, biotin-labelled in the capture ELISA and the benchmark-blocking ELISA)
T2 construct: Bought protein, MW 7.8 kDa as printed; not shown: his tag
T2 sequence: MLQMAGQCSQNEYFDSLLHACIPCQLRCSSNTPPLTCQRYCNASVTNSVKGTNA

B1: 마우스 항-BCMA 단일클론 항체 B1A1 (antibody, V domains shown)
VH: DVQLQESGPGLVKPSQSLSLTCSVTGYSITSAYYWNWIRQFPGNKLEWMGYIRYDGSNNYNPSLKNRISITRDTSKNQFFLKLNSVTAEDTATYYCAPYDYDEVFAYWGQGTLVTVSA
VL: DIVMTQSHKFMSTSVGDRVSITCKASQEVSTAVAWYQQKPGQSPKLLIYWASMRHTGVPDRFTGSGSGTDYTLIITSVQAEDLALYYCQQYYSTPLTFGAGTKLELK
B2: BCMA 벤치마크 (GSK2857916의 BCMA-결합 부분을 함유하는 항체) (antibody, human IgG1, kappa, V domains shown)
VH: QVQLVQSGAEVKKPGSSVKVSCKASGGTFSNYWMHWVRQAPGQGLEWMGATYRGHSDTYYNQKFKGRVTITADKSTSTAYMELSSLRSEDTAVYYCARGAIYDGYDVLDNWGQGTLVTVSS
VL: DIQMTQSPSSLSASVGDRVTITCSASQDISNYLNWYQQKPGKAPKLLIYYTSNLHSGVPSRFSGSGSGTDFTLTISSLQPEDFATYYCQQYRKLPWTFGQGTKLEIKR
notes: also called BM; BCMA-mab1

How the values were obtained:
[1] = biological target: T1, 인간 골수종 세포주 U266 표면의 인간 BCMA; assay: flow cytometry on U266 cells
[2] = biological target: T3, 사이노몰거스 원숭이 BCMA-Fc 단백질 (아크로 바이오시스템즈, Cat#BCA-C5253) (cynomolgus monkey, UniProt A0A2K5UD97 1-53); assay: SPR (Biacore T200), antibody captured on chip, cynomolgus BCMA-Fc in flow, 1:1 Langmuir fit
T3 construct: also called 사이노몰거스 BCMA-Fc; 사이노몰거스 BCMA; not shown: Fc tag

[3] = biological target: T2, 재조합 인간 BCMA-his 단백질 (Cat#BCA-H522Y, 아크로 …); assay: competition ELISA: BCMA-his coated, antibody titrated, then biotin-labelled human BAFF-Fc 0.25 nM; competitor BAFF-Fc
[4] = biological target: T2, 재조합 인간 BCMA-his 단백질 (Cat#BCA-H522Y, 아크로 …); assay: capture ELISA: antibody captured on plate, biotin-labelled human BCMA-his 0.28 nM in solution
[5] = biological target: T2, 재조합 인간 BCMA-his 단백질 (Cat#BCA-H522Y, 아크로 …); assay: competition ELISA: BM coated, antibody titrated and premixed with biotin-labelled human BCMA-his 0.22 nM; competitor BM
[6] = biological target: T2, 재조합 인간 BCMA-his 단백질 (Cat#BCA-H522Y, 아크로 …); assay: SPR (Biacore T200), antibody captured on chip, human BCMA-his in flow, 1:1 Langmuir fit
[7] = biological target: T2, 재조합 인간 BCMA-his 단백질 (Cat#BCA-H522Y, 아크로 …); assay: competition ELISA: BM coated, antibody titrated and premixed with biotin-labelled human BCMA-his 0.22 nM; competitor BM (self)
[8] = biological target: T2, 재조합 인간 BCMA-his 단백질 (Cat#BCA-H522Y, 아크로 …); assay: competition ELISA: BM coated, antibody titrated and premixed with biotin-labelled human BCMA-his; competitor BM (self)
[9] = biological target: T2, 재조합 인간 BCMA-his 단백질 (Cat#BCA-H522Y, 아크로 …); assay: capture ELISA with biotin-labelled human BCMA-his
[10] = biological target: T2, 재조합 인간 BCMA-his 단백질 (Cat#BCA-H522Y, 아크로 …); assay: SPR (Biacore), human BCMA
[11] = biological target: T3, 사이노몰거스 원숭이 BCMA-Fc 단백질 (아크로 바이오시스템즈, …); assay: SPR (Biacore), cynomolgus BCMA
[12] = biological target: T2, 재조합 인간 BCMA-his 단백질 (Cat#BCA-H522Y, 아크로 …); assay: competition ELISA: BCMA-his coated, antibody titrated, then biotin-labelled human BAFF-Fc; competitor BAFF-Fc

T3 sequence (A0A2K5UD97 entry or part of it): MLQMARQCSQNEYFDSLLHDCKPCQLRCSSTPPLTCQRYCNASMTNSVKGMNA

Binder | EC50 [1] [nM] | Kd [2] [nM] | koff [2] [s⁻¹] | kon [2] [M⁻¹ s⁻¹] | IC50 [3] | EC50 [4] | IC50 [5] [nM] | Kd [6] [nM] | koff [6] [s⁻¹] | kon [6] [M⁻¹ s⁻¹] | IC50 [7] | IC50 [8] | EC50 [9] | Kd [10] [nM] | Kd [11] [nM] | IC50 [12]
B1 | 2.66 | 9.08 | 0.0148 | 1.63e+06 | 7 nM | 1.06 nM | 1.91 | 0.636 | 0.00161 | 2.45e+06 |  |  |  |  |  | 
B2 |  |  |  |  | 9.61 nM and 10.7 nM | 1.27 nM and 1.11 nM |  | 0.742 | 0.000245 | 330000 | 1.93 nM and 2.64 nM | 2.23 nM and 1.64 nM | 0.71 nM and 0.93 nM | 0.742 | 0.599 | 3.64 nM and 3.59 nM

From KR20220012314A (dated 2022)
